In US20070110747A1 (Amgen, published 2007):

T1: human sclerostin, mature form (signal peptide removed) (human, UniProt Q9BQB4 24-213)
T1 construct: 190 amino acid glycoprotein; also called SOST; recombinant human sclerostin
T1 sequence: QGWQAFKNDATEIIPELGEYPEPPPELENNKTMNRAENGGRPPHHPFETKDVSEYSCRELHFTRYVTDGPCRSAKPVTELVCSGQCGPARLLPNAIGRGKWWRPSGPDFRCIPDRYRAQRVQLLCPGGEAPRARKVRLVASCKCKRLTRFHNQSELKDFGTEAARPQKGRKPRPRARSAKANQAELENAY

T2: rat sclerostin peptide KWWRPNGPDFRCIPDRYRAQRV (rat)
T2 construct: Coupled to the plate through its cysteine
T2 peptide: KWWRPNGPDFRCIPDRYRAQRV

B1: Antibody 4 (antibody, mouse IgG1, kappa, V domains shown)
VH: EVQLQQSGPELMKPGASVKMSCKASGYTFTDYNMHWVKQNQGKTLEWIGEINPNSGGAGYNQKFKGKATLTVDKSSTTAYMELRSLTSEDSAVYYCARLGYDDIYDDWYFDVWGAGTTVTVSS
VL: DIQMTQITSSLSASLGDRVSISCRASQDISNYLNWYQQKPDGTFKLLIFYTSRLLSGVPSRFSGSGSGTDYSLTIYNLEQEDFATYFCQQGDTLPYTFGGGTKLEIKR
notes: also called Ab-4
B2: Antibody 13 (antibody, mouse IgG1, kappa, V domains shown)
VH: EVQLQQSGPELVKPGASVKMSCKASGYTFTDYYMNWVKQSHGESLEWIGDINPYNDDTTYNHKFKGKATLTVDKSSNTAYMQLNSLTSEDSAVYYCARETAVITTNAMDYWGQGTSVTVSS
VL: QIVLTQSPAIMSASPGEKVTMTCRASSSVTSSYLNWYQQKPGSSPKLWIYSTSNLASGVPARFSGSGSGTSYSLTISSVEAEDAATYYCQQYDFFPSTFGGGTKLEIKR
notes: … = EVQ); also called Ab-13
B3: Antibody A (antibody, mouse IgG1, kappa, V domains shown)
VH: QSLEESGGRLVTPGTPLTLTCTASGFSLSSYWMNWVRQAPGEGLEWIGTIDSGGRTDYASWAKGRFTISRTSTTMDLKMTSLTTGDTARYFCARNWNLWGQGTLVTVSS
VL: AQVLTQTPASVSAAVGGTVTINCQSSQSVYDNNWLAWFQQKPGQPPKLLIYDASDLASGVPSRFSGSGSGTQFTLTISGVQCADAATYYCQGAYNDVIYAFGGGTEVVVKR
notes: Rabbit-mouse chimeric antibody; mature chains (signal peptides cleaved off); also called Ab-A; Mab-A
B4: Antibody 3 (antibody, mouse IgG1, kappa)
light: EIVLTQSPALMAASPGEKVTITCSVSSTISSNHLHWFQQKSDTSPKPWIYGTSNLASGVPVRFSGSGSGTSYSLTISSMEAEDAATYYCQQWSSYPLTFGAGTKLELRRADAAPTVSIFPPSSEQLTSGGASVVCFLNNFYPKDINVKWKIDGSERQNGVLNSWTDQDSKDSTYSMSSTLTLTKDEYERHNSYTCEATHKTSTSPIVKSFNRNEC
heavy: EVQLQQSGAELVRPGALVKLSCTASDFNIKDFYLHWMRQRPEQGLDWIGRIDPENGDTLYDPKFQDKATLTTDTSSNTAYLQLSGLTSETTAVYYCSREADYFHDGTSYWYFDVWGAGTTITVSSAKTTPPSVYPLAPGSAAQTNSMVTLGCLVKGYFPEPVTVTWNSGSLSSGVHTFPAVLQSDLYTLSSSVTVPSSTWPSETVTCNVAHPASSTKVDKKIVPRDCGCKPCICTVPEVSSVFIFPPKPKDVLTITLTPKVTCVVVDISKDDPEVQFSWFVDDVEVHTAQTQPREEQFNSTFRSVSELPIMHQDWLNGKEFKCRVNSAAFPAPIEKTISKTKGRPKAPQVYTIPPPKEQMAKDKVSLTCMITDFFPEDITVEWQWNGQPAENYKNTQPIMDTDGSYFIYSKLNVQKSNWEAGNTFTCSVLHEGLHNHHTEKSLSHSPGK
notes: also called Ab-3
B5: Antibody 19 (antibody, V domains shown)
VH: EVQLQQSGPELVKPGASVKMSCKASGFTFTDYIMHWVKQKPGQGLEWIGYINPYNDDTEYNEKFKGKATLTSDKSSSTAYMDLSSLTSEGSAVYYCARSIYYYDAPFAYWGQGTLVTVSS
VL: DIQMTQTTSSLSASLGDRVNISCRASQDISSYLNWYQQKPDGTVKLLIYSTSRLNSGVPSRFSGSGSGTDYSLTISNLAQEDIATYFCQQDIKHPTFGGGTKLELKR
notes: also called Ab-19

The binders below were run against T1, human sclerostin, mature form (signal …) (assay: Biacore cross-blocking on immobilised human sclerostin; RU of 1:1 mixture, competitor Ab-19).
Description: (§1) The antibodies to be tested were diluted to a concentration of 200 ug/ml in HBS-EP buffer (being 10 mM HEPES pH 7.4, 150 mM NaCl, 3 mM EDTA, 0.005% (v/v) Surfactant P20) and then mixed in a one to one molar ratio (on a binding site basis) to generate the test mixture. This test mixture thus contained each antibody at a concentration of 100 ug/ml (1.3 um on a binding site basis). Separate solutions containing each of the antibodies in the test mix alone were also prepared. These solutions contained the individual antibodies in HBS-EP buffer at a concentration of 100 ug/ml (1.3 um on a binding site basis).
(§2) 20 μL of the test mixture was passed over the sclerostin-coated chip at a flow rate of 10 μL/min and the amount of binding recorded. The chip was then treated with two 60 second pulses of 30 mM HCl to remove all of the bound antibody. A solution containing only one of the antibodies of the test mixture (at 1.3 μM in the same buffer as the test mixture on a binding site basis) was then passed over the chip in the same manner as the test mixture and the amount of binding recorded. The chip was again treated to remove all of the bound antibody and finally a solution containing the other antibody from the test mixture alone (at 1.3 μM in the same buffer as the test mixture on a binding site basis) was passed over the chip and the amount of binding recorded.
(§3) The table below show the results from cross-blocking assays on a range of different antibodies. The values in each square of the table represent the amount of binding (in RU) seen when the antibodies (at 1.3 μM on a binding site basis) or buffer indicated in the top row of the table were mixed with the antibodies (at 1.3 uM on a binding site basis) or buffer indicated in the first column of the table.

Going from B1 to B2, the “binding (RU)” value rises from 822 RU to 1040 RU.

First: B3
Second: B4
The “binding (RU)” value of the first is lower: 868 RU for the first, 896 RU for the second.

The binders below were run against T1, human sclerostin, mature form (signal …) (assay: Biacore cross-blocking on immobilised human sclerostin; RU of 1:1 mixture, competitor Ab-A).
Description: as §1, §2, §3

Compared with B1, B2 is higher in “binding (RU)” value: 860 RU for the first, 1110 RU for the second.

Going from B4 to B5, the “binding (RU)” value falls from 952 RU to 863 RU.

Each binder was assayed against T1, human sclerostin, mature form (signal …) (assay: Biacore cross-blocking on immobilised human sclerostin; RU of 1:1 mixture, competitor Ab-4).
Description: as §1, §2, §3

Going from B2 to B3, the “binding (RU)” value falls from 1010 RU to 833 RU.

Going from B4 to B5, the “binding (RU)” value falls from 845 RU to 789 RU.

Target: T2, rat sclerostin peptide …
Assay: ELISA on rat sclerostin peptides coupled to sulfhydryl binding plates, antibody at 1 ug/ml
Description: A series of overlapping peptides (each peptide being approximately 20-25 amino acids long) were synthesized based on the known amino acid sequence of rat sclerostin (SEQ ID NO:98). […] This enabled the peptides to be bound to the assay plates by covalent coupling, using commercially available sulfhydryl binding plates (Costar), at a concentration of […], in phosphate buffered saline (PBS: pH 6.5) containing 1 mM EDTA. Following incubation for 1 hour at room temperature, the plates were washed three times with PBS containing 0.5% Tween 20. The plates were blocked by incubation with a PBS solution containing 0.5% fish skin gelatin (Sigma) for 30 minutes at room temperature and then washed three times in PBS containing 0.5% Tween 20.
Antibodies to be tested were diluted to 1 μg/ml in PBS containing 0.5% fish skin gelatin and incubated with the peptide-coated plates for 1 hour at room temperature. Excess antibody was removed by three washes with PBS, 0.5% Tween 20. […] Finally the plates were incubated with a horseradish peroxidase chromogenic substrate (TMB-Stable Stop, RDI) for 5 minutes at room temperature, the color development was stopped with acid, and the plates' optical density measured at 450 nm.

B5: binds.

The binders below were run against T1, human sclerostin, mature form (signal …) (assay: Biacore cross-blocking on immobilised human sclerostin; RU of 1:1 mixture, competitor Ab-3).
Description: as §1, §2, §3

First: B1
Second: B2
The “binding (RU)” value of the first is higher: 869 RU for the first, 432 RU for the second.

First: B3
Second: B5
The “binding (RU)” value of the first is higher: 946 RU for the first, 892 RU for the second.

What follows are binders tested against T1, human sclerostin, mature form (signal …) (assay: Biacore cross-blocking on immobilised human sclerostin; RU of 1:1 mixture, competitor Ab-13).
Description: as §1, §2, §3

Going from B1 to B3, the “binding (RU)” value rises from 1020 RU to 1080 RU.

Compared with B4, B5 is higher in “binding (RU)” value: 428 RU for the first, 1020 RU for the second.
